This assay has as its target phosphorylated JAK2 (UniProt O60674). As to the kind of experiment: co-immunoprecipitation (IP p-JAK2, IB c-Mpl) with densitometry. Particulars: HEK293T cells; 20 ng/mL TPO stimulation; parent: est. 1.3; read off a plot.
UniProt O60674, sequence (O60674 whole entry, canonical isoform): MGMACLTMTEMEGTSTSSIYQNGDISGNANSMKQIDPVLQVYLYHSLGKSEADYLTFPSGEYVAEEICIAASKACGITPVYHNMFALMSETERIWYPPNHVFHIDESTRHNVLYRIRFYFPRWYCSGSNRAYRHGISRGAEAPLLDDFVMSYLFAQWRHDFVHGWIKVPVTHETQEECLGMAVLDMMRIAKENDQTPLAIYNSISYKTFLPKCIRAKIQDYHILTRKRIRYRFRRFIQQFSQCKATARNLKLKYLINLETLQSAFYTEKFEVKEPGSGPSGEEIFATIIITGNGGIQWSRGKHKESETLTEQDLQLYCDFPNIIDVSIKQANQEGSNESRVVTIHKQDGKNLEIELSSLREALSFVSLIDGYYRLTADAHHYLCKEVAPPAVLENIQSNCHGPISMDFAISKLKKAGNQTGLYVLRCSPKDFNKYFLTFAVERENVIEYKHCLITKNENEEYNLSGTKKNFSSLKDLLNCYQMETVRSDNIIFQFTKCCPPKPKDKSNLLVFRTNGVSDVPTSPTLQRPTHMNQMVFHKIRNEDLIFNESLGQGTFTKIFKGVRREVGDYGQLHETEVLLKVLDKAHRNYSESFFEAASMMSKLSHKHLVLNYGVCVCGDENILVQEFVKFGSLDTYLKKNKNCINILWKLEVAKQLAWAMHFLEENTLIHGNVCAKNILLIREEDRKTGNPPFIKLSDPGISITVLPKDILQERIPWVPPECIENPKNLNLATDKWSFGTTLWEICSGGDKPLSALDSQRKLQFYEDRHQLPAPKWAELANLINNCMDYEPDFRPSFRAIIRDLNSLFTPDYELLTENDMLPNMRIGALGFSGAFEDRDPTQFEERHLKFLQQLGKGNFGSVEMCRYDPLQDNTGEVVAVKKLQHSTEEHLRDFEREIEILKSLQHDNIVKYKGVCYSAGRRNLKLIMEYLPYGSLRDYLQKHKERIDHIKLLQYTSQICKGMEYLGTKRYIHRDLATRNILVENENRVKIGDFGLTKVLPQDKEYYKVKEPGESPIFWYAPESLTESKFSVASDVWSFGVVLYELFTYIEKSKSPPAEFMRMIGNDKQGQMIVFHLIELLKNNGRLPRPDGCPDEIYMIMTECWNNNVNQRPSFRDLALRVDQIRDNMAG
“c-Mpl-del (c-Mpl alternative splicing isoform with a 24 amino acid deletion in the extracellular region) Y607F”: the response is 0.18.

Take “c-Mpl-del (c-Mpl alternative splicing isoform with a 24 amino acid deletion in the extracellular region) Y567F”: the response came to 0.54.

As to “c-Mpl-del (c-Mpl alternative splicing isoform with a 24 amino acid deletion in the extracellular region) Y602F”, the response was 0.44.

Values taken from paper PMC9561678.
